Reference: article PMC3735830 (Nature structural & molecular biology, 2013)
Each block holds one binder with its values, some of them ahead of it.

Columns and labels:
[1] = target: Mcm6 (S. cerevisiae, UniProt P53091 1-1017); test: cryo-EM structure
[2] = target: T1, Orc3 (S. cerevisiae, UniProt P54790 1-616); test: cryo-EM structure
T1 sequence: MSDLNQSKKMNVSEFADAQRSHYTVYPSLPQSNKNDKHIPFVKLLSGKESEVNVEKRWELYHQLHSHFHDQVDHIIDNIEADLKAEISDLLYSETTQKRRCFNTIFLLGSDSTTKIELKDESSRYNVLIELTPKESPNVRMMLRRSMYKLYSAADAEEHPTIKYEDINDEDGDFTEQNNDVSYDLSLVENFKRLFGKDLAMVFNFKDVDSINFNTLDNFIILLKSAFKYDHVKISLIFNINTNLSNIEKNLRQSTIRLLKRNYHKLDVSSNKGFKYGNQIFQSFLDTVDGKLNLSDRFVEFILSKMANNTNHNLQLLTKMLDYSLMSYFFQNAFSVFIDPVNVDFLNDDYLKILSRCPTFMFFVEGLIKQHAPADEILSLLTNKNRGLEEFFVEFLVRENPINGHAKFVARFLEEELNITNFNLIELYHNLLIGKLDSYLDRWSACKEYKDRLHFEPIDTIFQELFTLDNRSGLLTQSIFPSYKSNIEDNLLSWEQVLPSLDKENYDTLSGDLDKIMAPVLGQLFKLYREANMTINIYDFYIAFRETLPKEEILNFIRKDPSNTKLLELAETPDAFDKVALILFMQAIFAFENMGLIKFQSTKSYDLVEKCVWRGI

[3] = target: T2, Orc1 (S. cerevisiae, UniProt P54784 1-914); test: cryo-EM structure
T2 sequence: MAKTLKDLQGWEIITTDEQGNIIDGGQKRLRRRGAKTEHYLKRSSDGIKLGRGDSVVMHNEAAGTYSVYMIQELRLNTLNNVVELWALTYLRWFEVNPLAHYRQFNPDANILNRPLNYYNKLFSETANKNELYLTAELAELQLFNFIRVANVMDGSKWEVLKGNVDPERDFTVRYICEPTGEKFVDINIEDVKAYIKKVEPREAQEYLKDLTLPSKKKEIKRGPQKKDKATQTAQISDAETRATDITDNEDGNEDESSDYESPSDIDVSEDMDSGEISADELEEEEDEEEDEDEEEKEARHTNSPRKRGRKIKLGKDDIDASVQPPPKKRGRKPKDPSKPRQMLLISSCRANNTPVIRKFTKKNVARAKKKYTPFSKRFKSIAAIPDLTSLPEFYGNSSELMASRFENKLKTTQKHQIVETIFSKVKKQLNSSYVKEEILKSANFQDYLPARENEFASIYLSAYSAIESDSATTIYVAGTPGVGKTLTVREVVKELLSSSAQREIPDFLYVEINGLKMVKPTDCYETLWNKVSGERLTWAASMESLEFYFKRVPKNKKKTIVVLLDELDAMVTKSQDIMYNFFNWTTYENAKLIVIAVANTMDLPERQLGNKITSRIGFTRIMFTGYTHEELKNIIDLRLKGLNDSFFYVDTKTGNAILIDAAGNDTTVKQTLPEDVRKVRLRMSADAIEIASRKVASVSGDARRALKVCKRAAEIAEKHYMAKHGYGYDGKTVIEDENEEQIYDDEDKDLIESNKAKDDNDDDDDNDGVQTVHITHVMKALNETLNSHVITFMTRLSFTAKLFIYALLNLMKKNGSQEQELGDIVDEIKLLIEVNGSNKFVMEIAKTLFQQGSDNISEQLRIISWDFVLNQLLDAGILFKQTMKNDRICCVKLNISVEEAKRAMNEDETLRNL

[4] = target: T3, Mcm4 (S. cerevisiae, UniProt P30665 1-933); test: cryo-EM structure
T3 sequence: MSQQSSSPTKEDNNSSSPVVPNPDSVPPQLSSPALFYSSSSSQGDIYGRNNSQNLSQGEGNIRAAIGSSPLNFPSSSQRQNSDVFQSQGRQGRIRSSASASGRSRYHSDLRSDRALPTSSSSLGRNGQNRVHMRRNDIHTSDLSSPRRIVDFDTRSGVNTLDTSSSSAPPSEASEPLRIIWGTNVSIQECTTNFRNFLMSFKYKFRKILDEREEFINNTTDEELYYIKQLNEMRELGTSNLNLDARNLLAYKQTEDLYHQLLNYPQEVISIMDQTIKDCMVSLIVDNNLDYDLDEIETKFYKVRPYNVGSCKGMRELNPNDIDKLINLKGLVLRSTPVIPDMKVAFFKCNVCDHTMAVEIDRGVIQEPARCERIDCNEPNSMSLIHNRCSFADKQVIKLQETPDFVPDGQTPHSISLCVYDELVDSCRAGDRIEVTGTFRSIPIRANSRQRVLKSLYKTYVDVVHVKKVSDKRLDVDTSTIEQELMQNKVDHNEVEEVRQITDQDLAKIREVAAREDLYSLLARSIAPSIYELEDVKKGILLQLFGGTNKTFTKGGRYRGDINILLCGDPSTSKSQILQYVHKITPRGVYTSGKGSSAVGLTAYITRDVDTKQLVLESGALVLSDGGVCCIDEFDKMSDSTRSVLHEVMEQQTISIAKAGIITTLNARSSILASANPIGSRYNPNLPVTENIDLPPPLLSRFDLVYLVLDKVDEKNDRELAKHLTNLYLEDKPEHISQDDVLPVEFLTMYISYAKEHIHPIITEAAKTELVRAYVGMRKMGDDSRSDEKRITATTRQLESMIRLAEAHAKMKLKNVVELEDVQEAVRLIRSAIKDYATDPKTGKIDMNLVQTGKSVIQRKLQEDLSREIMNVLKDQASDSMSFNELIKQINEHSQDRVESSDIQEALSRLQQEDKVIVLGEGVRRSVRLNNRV

[5] = target: Mcm3 (S. cerevisiae, UniProt P24279 1-971); test: cryo-EM structure
[6] = target: T4, Mcm2 (S. cerevisiae, UniProt P29469 1-868); test: co-IP
T4 sequence: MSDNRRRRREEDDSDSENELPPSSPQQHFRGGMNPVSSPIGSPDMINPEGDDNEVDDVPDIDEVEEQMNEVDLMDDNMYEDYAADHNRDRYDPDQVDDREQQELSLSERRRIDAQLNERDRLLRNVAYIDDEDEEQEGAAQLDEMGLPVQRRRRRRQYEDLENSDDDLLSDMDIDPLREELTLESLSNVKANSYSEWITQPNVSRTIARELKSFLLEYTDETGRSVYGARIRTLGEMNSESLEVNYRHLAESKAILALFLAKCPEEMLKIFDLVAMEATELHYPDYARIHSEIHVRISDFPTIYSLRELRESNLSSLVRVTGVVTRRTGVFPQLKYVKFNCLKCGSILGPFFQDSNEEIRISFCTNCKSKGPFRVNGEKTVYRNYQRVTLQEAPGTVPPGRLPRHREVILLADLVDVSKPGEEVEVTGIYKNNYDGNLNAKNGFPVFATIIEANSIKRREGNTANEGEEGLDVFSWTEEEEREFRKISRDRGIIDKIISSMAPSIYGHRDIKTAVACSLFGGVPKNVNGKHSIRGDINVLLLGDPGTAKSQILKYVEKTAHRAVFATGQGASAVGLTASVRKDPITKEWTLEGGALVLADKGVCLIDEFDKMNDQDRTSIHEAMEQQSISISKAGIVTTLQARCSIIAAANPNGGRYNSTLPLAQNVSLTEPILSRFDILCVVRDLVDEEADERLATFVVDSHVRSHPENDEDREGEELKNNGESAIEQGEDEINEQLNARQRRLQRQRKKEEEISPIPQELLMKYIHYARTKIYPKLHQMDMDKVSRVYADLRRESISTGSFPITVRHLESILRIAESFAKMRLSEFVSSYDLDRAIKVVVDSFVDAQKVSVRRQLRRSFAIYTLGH

Sequence of Mcm6 (P53091 whole entry): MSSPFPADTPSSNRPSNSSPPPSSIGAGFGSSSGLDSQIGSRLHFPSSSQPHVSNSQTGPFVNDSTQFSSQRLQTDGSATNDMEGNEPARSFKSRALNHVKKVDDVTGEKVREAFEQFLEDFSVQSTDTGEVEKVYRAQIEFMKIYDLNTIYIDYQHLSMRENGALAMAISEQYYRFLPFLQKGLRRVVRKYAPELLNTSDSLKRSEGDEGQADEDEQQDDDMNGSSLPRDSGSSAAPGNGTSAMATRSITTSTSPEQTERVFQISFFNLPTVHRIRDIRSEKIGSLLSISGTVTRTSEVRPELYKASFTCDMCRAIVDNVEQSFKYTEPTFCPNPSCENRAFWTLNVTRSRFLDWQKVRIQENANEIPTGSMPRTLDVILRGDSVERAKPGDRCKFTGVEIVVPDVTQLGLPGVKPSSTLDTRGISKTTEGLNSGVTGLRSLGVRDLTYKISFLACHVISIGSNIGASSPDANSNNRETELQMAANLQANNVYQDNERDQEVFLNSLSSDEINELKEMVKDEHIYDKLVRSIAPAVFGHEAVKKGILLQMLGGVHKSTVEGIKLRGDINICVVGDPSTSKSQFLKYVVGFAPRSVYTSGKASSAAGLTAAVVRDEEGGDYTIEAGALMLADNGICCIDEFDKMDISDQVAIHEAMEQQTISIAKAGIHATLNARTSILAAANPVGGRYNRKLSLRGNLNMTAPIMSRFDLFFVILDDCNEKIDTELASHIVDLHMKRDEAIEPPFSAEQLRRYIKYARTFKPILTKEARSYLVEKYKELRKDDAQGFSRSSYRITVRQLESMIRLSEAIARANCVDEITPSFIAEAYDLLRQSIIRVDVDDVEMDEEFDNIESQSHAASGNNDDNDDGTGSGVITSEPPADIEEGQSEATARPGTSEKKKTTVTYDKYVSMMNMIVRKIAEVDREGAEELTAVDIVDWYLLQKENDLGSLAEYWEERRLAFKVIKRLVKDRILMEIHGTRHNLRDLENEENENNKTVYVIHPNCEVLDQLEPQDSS
Sequence of Mcm3 (P24279 whole entry): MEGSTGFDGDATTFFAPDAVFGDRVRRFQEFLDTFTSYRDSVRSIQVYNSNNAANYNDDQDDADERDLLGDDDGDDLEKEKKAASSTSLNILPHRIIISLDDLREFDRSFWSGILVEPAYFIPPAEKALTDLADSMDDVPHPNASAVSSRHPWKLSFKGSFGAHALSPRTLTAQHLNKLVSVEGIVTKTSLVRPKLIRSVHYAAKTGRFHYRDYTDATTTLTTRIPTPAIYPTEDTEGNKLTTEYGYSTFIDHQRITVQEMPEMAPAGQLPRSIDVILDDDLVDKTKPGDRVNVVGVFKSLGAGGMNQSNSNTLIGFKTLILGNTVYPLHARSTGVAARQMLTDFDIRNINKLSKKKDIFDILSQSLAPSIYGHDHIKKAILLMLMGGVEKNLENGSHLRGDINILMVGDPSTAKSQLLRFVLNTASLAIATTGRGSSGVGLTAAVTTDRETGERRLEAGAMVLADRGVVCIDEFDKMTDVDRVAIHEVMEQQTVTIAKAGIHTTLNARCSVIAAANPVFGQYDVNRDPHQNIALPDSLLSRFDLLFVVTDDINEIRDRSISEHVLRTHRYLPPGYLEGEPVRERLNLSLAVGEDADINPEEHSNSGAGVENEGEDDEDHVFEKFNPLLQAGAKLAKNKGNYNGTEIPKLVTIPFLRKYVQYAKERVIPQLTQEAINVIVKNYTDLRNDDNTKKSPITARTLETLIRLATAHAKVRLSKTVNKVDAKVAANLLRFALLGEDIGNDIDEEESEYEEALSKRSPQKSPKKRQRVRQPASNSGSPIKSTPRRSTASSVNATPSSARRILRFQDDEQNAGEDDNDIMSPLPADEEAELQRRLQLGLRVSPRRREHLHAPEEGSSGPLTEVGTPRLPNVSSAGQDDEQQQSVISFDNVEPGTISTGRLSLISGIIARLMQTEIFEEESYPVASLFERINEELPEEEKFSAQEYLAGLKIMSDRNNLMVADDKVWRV

binding result [1]: binds
B1: Cdt1 (natural protein)
chain: MSGTANSRRKEVLRVPVIDLNRVSDEEQLLPVVRAILLQHDTFLLKNYANKAVLDALLAGLTTKDLPDTSQGFDANFTGTLPLEDDVWLEQYIFDTDPQLRFDRKCRNESLCSIYSRLFKLGLFFAQLCVKSVVSSAELQDCISTSHYATKLTRYFNDNGSTHDGADAGATVLPTGDDFQYLFERDYVTFLPTGVLTIFPCAKAIRYKPSTMATTDNSWVSIDEPDCLLFHTGTLLARWSQGMHTTSPLQIDPRANIVSLTIWPPLTTPISSKGEGTIANHLLEQQIKAFPKVAQQYYPRELSILRLQDAMKFVKELFTVCETVLSLNALSRSTGVPPELHVLLPQISSMMKRKIVQDDILKLLTIWSDAYVVELNSRGELTMNLPKRDNLTTLTNKSRTLAFVERAESWYQQVIASKDEIMTDVPAFKINKRRSSSNSKTVLSSKVQTKSSNANALNNSRYLANSKENFMYKEKMPDSQANLMDRLRERERRSAALLSQRQKRYQQFLAMKMTQVFDILFSLTRGQPYTETYLSSLIVDSLQDSNNPIGTKEASEILAGLQGILPMDISVHQVDGGLKVYRWNSLDKNRFSKLLQIHKSKQQD

binding result [2]: binds
binding result [3]: binds
B2: Cdc6 (natural protein)
chain: MSAIPITPTKRIRRNLFDDAPATPPRPLKRKKLQFTDVTPESSPEKLQFGSQSIFLRTKALLQKSSELVNLNSSDGALPARTAEYEQVMNFLAKAISEHRSDSLYITGPPGTGKTAQLDMIIRQKFQSLPLSLSTPRSKDVLRHTNPNLQNLSWFELPDGRLESVAVTSINCISLGEPSSIFQKIFDSFQDLNGPTLQIKNMQHLQKFLEPYHKKTTFVVVLDEMDRLLHANTSETQSVRTILELFLLAKLPTVSFVLIGMANSLDMKDRFLSRLNLDRGLLPQTIVFQPYTAEQMYEIVIQKMSSLPTIIFQPMAIKFAAKKCAGNTGDLRKLFDVLRGSIEIYELEKRFLLSPTRGSLNSAQVPLTPTTSPVKKSYPEPQGKIGLNYIAKVFSKFVNNNSTRTRIAKLNIQQKLILCTIIQSLKLNSDATIDESFDHYIKAITKTDTLAPLQRNEFLEICTILETCGLVSIKKTKCKGKTKRFVDKIDVDLDMREFYDEMTKISILKPFLH

binding result [3]: binds
B3: Orc4 (natural protein)
chain: MTISEARLSPQVNLLPIKRHSNEEVEETAAILKKRTIDNEKCKDSDPGFGSLQRRLLQQLYGTLPTDEKIIFTYLQDCQQEIDRIIKQSIIQKESHSVILVGPRQSYKTYLLDYELSLLQQSYKEQFITIRLNGFIHSEQTAINGIATQLEQQLQKIHGSEEKIDDTSLETISSGSLTEVFEKILLLLDSTTKTRNEDSGEVDRESITKITVVFIFDEIDTFAGPVRQTLLYNLFDMVEHSRVPVCIFGCTTKLNILEYLEKRVKSRFSQRVIYMPQIQNLDDMVDAVRNLLTVRSEISPWVSQWNETLEKELSDPRSNLNRHIRMNFETFRSLPTLKNSIIPLVATSKNFGSLCTAIKSCSFLDIYNKNQLSNNLTGRLQSLSDLELAILISAARVALRAKDGSFNFNLAYAEYEKMIKAINSRIPTVAPTTNVGTGQSTFSIDNTIKLWLKKDVKNVWENLVQLDFFTEKSAVGLRDNATAAFYASNYQFQGTMIPFDLRSYQMQIILQELRRIIPKSNMYYSWTQL

binding result [4]: binds
binding result [5]: binds
binding result [6]: binds
B4: Mcm7 (natural protein)
chain: MSAALPSIQLPVDYNNLFNEITDFLVTFKQDTLSSDATRNENEDENLDAENIEQHLLEKGPKYMAMLQKVANRELNSVIIDLDDILQYQNEKFLQGTQADDLVSAIQQNANHFTELFCRAIDNNMPLPTKEIDYKDDVLDVILNQRRLRNERMLSDRTNEIRSENLMDTTMDPPSSMNDALREVVEDETELFPPNLTRRYFLYFKPLSQNCARRYRKKAISSKPLSVRQIKGDFLGQLITVRGIITRVSDVKPAVEVIAYTCDQCGYEVFQEVNSRTFTPLSECTSEECSQNQTKGQLFMSTRASKFSAFQECKIQELSQQVPVGHIPRSLNIHVNGTLVRSLSPGDIVDVTGIFLPAPYTGFKALKAGLLTETYLEAQFVRQHKKKFASFSLTSDVEERVMELITSGDVYNRLAKSIAPEIYGNLDVKKALLLLLVGGVDKRVGDGMKIRGDINVCLMGDPGVAKSQLLKAICKISPRGVYTTGKGSSGVGLTAAVMKDPVTDEMILEGGALVLADNGICCIDEFDKMDESDRTAIHEVMEQQTISISKAGINTTLNARTSILAAANPLYGRYNPRLSPLDNINLPAALLSRFDILFLMLDIPSRDDDEKLAEHVTYVHMHNKQPDLDFTPVEPSKMREYIAYAKTKRPVMSEAVNDYVVQAYIRLRQDSKREMDSKFSFGQATPRTLLGIIRLSQALAKLRLADMVDIDDVEEALRLVRVSKESLYQETNKSKEDESPTTKIFTIIKKMLQETGKNTLSYENIVKTVRLRGFTMLQLSNCIQEYSYLNVWHLINEGNTLKFVDDGTMDTDQEDSLVSTPKLAPQTTASANVSAQDSDIDLQDA
